Results: publication PMC5837041 (Molecular cell, 2017)

Key:
[1] = molecular target: T1, Vms1 (Vms1^1-417) (Saccharomyces cerevisiae, UniProt Q04311); assay: lipid blot on nitrocellulose; format: binding; conditions: TBS pH 7.5, 4 °C, 3% BSA (blot); competitive with LRS for the MTD
T1 sequence (Q04311 1-417): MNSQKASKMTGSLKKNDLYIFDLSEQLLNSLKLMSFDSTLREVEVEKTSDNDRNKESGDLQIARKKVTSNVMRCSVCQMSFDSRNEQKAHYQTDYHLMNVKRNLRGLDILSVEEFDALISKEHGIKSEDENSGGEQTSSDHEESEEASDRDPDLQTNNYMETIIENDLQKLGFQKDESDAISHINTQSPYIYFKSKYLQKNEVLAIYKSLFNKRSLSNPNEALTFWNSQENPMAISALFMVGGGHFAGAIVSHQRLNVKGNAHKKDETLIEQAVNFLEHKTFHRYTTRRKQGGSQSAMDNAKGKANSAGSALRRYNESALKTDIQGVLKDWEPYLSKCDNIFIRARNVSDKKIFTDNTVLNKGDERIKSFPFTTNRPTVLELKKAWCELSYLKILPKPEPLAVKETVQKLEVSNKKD

[2] = molecular target: T2, C-terminal fragment of PreScission-cleaved His10-Vms1(1-182-PP-417)-HA (S. cerevisiae, UniProt Q04311 183-417); assay: SEC
T2 sequence (looked up): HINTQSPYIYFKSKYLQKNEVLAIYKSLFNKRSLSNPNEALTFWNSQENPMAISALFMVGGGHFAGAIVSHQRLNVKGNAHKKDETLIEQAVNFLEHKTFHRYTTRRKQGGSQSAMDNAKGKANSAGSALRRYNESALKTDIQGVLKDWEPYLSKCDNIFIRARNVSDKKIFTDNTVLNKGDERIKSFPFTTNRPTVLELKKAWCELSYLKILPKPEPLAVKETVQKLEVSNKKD

[3] = molecular target: T3, C-terminal fragment of PreScission-cleaved His10-Vms1(1-182-PP-417, C387A, E25C, S228C)-HA (S. cerevisiae, UniProt Q04311 183-417, S228C | C387A); assay: cross-linking
T3 sequence (looked up): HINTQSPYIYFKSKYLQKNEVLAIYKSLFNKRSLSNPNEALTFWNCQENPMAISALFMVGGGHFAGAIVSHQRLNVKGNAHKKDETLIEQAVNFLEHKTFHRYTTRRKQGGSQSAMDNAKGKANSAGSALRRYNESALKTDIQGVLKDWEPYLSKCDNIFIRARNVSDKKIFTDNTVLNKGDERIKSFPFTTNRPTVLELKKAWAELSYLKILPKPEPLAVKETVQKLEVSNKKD

[4] = molecular target: T4, C-terminal fragment of PreScission-cleaved His10-Vms1(1-182-PP-417, C387A, K32C, T224C)-HA (S. cerevisiae, UniProt Q04311 183-417, T224C | C387A); assay: cross-linking
T4 sequence (looked up): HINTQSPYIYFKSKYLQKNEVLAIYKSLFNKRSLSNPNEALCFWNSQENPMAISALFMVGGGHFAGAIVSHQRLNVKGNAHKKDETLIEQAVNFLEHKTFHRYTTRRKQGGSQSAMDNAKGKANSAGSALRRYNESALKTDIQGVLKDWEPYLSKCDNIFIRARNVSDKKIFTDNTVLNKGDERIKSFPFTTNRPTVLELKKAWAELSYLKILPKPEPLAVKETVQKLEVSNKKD

[5] = molecular target: T5, C-terminal fragment of PreScission-cleaved His10-Vms1(1-182-PP-417, C387A, K32C, N218C)-HA (S. cerevisiae, UniProt Q04311 183-417, N218C | C387A); assay: cross-linking
T5 sequence (looked up): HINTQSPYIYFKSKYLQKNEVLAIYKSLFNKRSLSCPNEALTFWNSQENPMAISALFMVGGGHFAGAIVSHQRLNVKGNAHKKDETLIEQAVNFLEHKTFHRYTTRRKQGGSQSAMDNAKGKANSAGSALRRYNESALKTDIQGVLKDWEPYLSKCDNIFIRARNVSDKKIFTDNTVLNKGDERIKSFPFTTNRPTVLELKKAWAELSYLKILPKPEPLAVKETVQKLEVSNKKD

For `CC(C)[C@@H](C)/C=C/[C@@H](C)[C@H]1CC[C@@H]2[C@]1(C)CC[C@H]1[C@]23C=C[C@]2(C[C@@H](O)CC[C@]12C)OO3` [EP, ergosterol peroxide], the “lipid blot on nitrocellulose; liposome floatation assay” value [1] was “Vms1 displayed comparable binding to nitrocellulose-spotted commercial EP and the purified C28H44O3”.

B1: N-terminal fragment of PreScission-cleaved His10-Vms1(1-182-PP-417)-HA (domain or fragment, S. cerevisiae, UniProt Q04311 1-182, looked up)
chain: MNSQKASKMTGSLKKNDLYIFDLSEQLLNSLKLMSFDSTLREVEVEKTSDNDRNKESGDLQIARKKVTSNVMRCSVCQMSFDSRNEQKAHYQTDYHLMNVKRNLRGLDILSVEEFDALISKEHGIKSEDENSGGEQTSSDHEESEEASDRDPDLQTNNYMETIIENDLQKLGFQKDESDAIS
B1: binds [2].

B2: N-terminal fragment of PreScission-cleaved His10-Vms1(1-182-PP-417, C387A, E25C, S228C)-HA (domain or fragment, S. cerevisiae, UniProt Q04311 1-182, looked up)
chain: MNSQKASKMTGSLKKNDLYIFDLSCQLLNSLKLMSFDSTLREVEVEKTSDNDRNKESGDLQIARKKVTSNVMRCSVCQMSFDSRNEQKAHYQTDYHLMNVKRNLRGLDILSVEEFDALISKEHGIKSEDENSGGEQTSSDHEESEEASDRDPDLQTNNYMETIIENDLQKLGFQKDESDAIS
B2: binds [3].

B3: N-terminal fragment of PreScission-cleaved His10-Vms1(1-182-PP-417, C387A, K32C, T224C or N218C)-HA (domain or fragment, S. cerevisiae, UniProt Q04311 1-182, looked up)
chain: MNSQKASKMTGSLKKNDLYIFDLSEQLLNSLCLMSFDSTLREVEVEKTSDNDRNKESGDLQIARKKVTSNVMRCSVCQMSFDSRNEQKAHYQTDYHLMNVKRNLRGLDILSVEEFDALISKEHGIKSEDENSGGEQTSSDHEESEEASDRDPDLQTNNYMETIIENDLQKLGFQKDESDAIS
B3: binds [4]; binds [5].
